Two molecules from PMC10999750, “Structural basis for nuclear import of bat adeno-associated virus capsid protein” (The Journal of General Virology, 2024) can be followed below.

Where no end group is shown, it is not given here. The star is where a group is joined. FITC = O=C1OC2(c3ccc(O)cc3Oc3cc(O)ccc32)c2ccc(NC(=S)*)cc21; Ahx = NCCCCCC(=O)O

In test [1] the target is T1, Mouse importin α2 lacking the IBB domain (mImpα2DIBB) (mouse, UniProt P52293 70-529). Briefly: fluorescence polarisation; FITC-tagged peptide ('2 nm' [sic]) with importin two-fold serially diluted from 4.5 µM across 23 wells, 200 µl, GST Buffer A (50 mM Tris, 125 mM NaCl); three independent experiments. As to conditions: both partners purified. Background: Polarisation of emitted light reports the rotation of a fluorescent probe.

Test [2] deals with T1, Mouse importin α2 lacking the IBB …. Briefly: crystal structure; co-purified complex of AAV 09YN Cap-BR and IMPα2; hanging drop, 0.75 M Na citrate, 0.1 M HEPES pH 7.5, 22 °C; 2.4 Å. As to conditions: both partners purified.

B1: Synthetic FITC labelled AAV 09YN Cap-BR peptide (residues 117-167) (peptide)
peptide: {FITC-Ahx}-QAKKRVLEPFGLVEGEPEPKKTPSVKRPHASPDSSSGVGKKGDQPARKRLD
notes: also called FITC-tagged AAV 09YN Cap-BR peptide; non-mutated 09YN Cap-BR; source: synthetic peptide (GenScript)
B1: binding in test [1] was characterised by a dissociation constant (Kd) of 656 nM.

B2: AAV 09YN Cap-BR (N-terminal domain fragment of AAV 09YN VP1 encompassing basic regions 1-3, residues 112-169) (domain or fragment)
chain: ANALFQAKKRVLEPFGLVEGEPEPKKTPSVKRPHASPDSSSGVGKKGDQPARKRLDFG
notes: not shown: GST, N-terminal, cleaved
For B2, in test [2], the binding result is “binds”.

One may read the Kd as the equilibrium constant for the complex coming apart. Read a low Kd as higher affinity.
